Experimental data from US20250043302A1, “MUTATED HYDROXYPHENYLPYRUVATE DIOXYGENASE POLYPEPTIDE, AND CODING GENE AND USE THEREOF” (BEIJING DABEINONG BIOTECHNOLOGY CO., LTD., priority 2021, published 2025).
Substitutions are numbered along the chain they refer to. In names and notes the source's numbering stands.

Key:
Assay type in all cases: in vivo
[1] = test system: Arabidopsis thaliana T1 plants; assay: Mesotrione tolerance of transgenic Arabidopsis thaliana T1 plants (spray, bleached leaf area grade, damage score); parameters: Scores: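 damage score 0-100 computed as Σ(N×S)/(T×M)×100 over grades 0-3 with higher meaning more damage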; conditions: Table 12; for Classification and statistics of the grade of pesticide damage Grade 0: number of plants at grade 0; for Classification and statistics of the grade of pesticide damage Grade 1: number of plants at grade 1; for Classification and statistics of the grade of pesticide damage Grade 2: number of plants at grade 2; for Classification and statistics of the grade of pesticide damage Grade 3: number of plants at grade 3; for Scores: pesticide damage score
Summary of the method: (§1)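 T1 transformants selected by glufosinate; 18-day-old plants, with empty-vector and wild-type controls, sprayed with topramezone (25–200 g ai/ha), isoxaflutole (35–280 g ai/ha) or mesotrione (52.5–420 g ai/ha), water as 0×. Bleached leaf area fraction scored at 7 DAT as grades 0–3.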

[2] = test system: Arabidopsis thaliana T1 plants; assay: Isoxaflutole tolerance of transgenic Arabidopsis thaliana T1 plants (spray, bleached leaf area grade, damage score); conditions: Table 11; for Classification and statistics of the grade of pesticide damage Grade 0: number of plants at grade 0; for Classification and statistics of the grade of pesticide damage Grade 1: number of plants at grade 1; for Classification and statistics of the grade of pesticide damage Grade 2: number of plants at grade 2; for Classification and statistics of the grade of pesticide damage Grade 3: number of plants at grade 3; for Scores: pesticide damage score;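 on Scores: Weighted damage index from 0 to 100 where higher means more damage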
Summary of the method: as §1

[3] = test system: Arabidopsis thaliana T1 plants; assay: Topramezone tolerance of transgenic Arabidopsis thaliana T1 plants (spray, bleached leaf area grade, damage score); conditions: Table 10; for Classification and statistics of the grade of pesticide damage Grade 0: number of plants at grade 0; for Classification and statistics of the grade of pesticide damage Grade 1: number of plants at grade 1; for Classification and statistics of the grade of pesticide damage Grade 2: number of plants at grade 2; for Classification and statistics of the grade of pesticide damage Grade 3: number of plants at grade 3; for Scores: pesticide damage score
Summary of the method: as §1

B1: HPPDm-5-02: nucleotide sequence encoding Avena sativa HPPD with A111T+K351N+F372A+F383W; vector DBN11786 (nucleic acid)
DNA: ATGCCACCTACTCCAGCTACAGCTACTGGTGCTGCTGCTGCTGCCGTTACTCCTGAGCACGCTGCCAGGTCATTCCCCAGGGTGGTTCGCGTGAACCCCAGATCTGATAGGTTCCCAGTTCTGAGCTTCCACCATGTTGAGCTGTGGTGCGCTGATGCTGCTTCTGCTGCTGGCAGGTTCTCTTTCGCTCTTGGTGCTCCACTCGCTGCTAGATCTGATCTGTCTACAGGAAATAGCGCTCATGCCTCACTCCTGCTTCGCTCAGGTGCTTTGGCCTTCCTCTTCACCGCTCCATATGCTCCCCCACCTCAGGAGGCTGCTACTGCTGCTACTACAGCCTCCATTCCAAGCTTCTCAGCTGATGCCGCTAGAACCTTCGCTGCTGCTCATGGACTTGCCGTGAGGTCTGTTGGTGTTCGCGTGGCTGATGCTGCTGAGGCTTTCAGAGTTTCCGTTGCCGGCGGAGCTAGGCCAGCTTTCGCTCCTGCTGATTTGGGACATGGTTTCGGCCTGGCTGAGGTTGAGCTTTACGGTGACGTGGTTCTCCGCTTCGTGTCTTACCCAGATGAGACTGACCTGCCTTTCCTTCCCGGCTTCGAGAGAGTTTCCTCTCCTGGTGCCGTGGATTACGGCCTGACAAGGTTCGACCACGTGGTTGGAAACGTTCCCGAGATGGCTCCAGTGATCGATTACATGAAGGGCTTCCTTGGATTCCATGAGTTCGCCGAGTTCACTGCTGAGGACGTGGGAACCACTGAGTCCGGTTTGAACTCTGTGGTTCTCGCCAACAATTCTGAGGCTGTTTTGCTCCCTCTGAATGAGCCTGTGCATGGAACCAAGAGGAGAAGCCAGATTCAAACTTACCTGGAGTACCACGGTGGCCCTGGAGTTCAGCATATCGCCCTTGCTTCTAATGATGTGTTGCGCACACTCAGAGAGATGCGCGCCAGAACCCCCATGGGAGGTTTCGAGTTCATGGCCCCACCACAGGCTAAGTACTACGAGGGCGTTAGAAGGATTGCTGGAGACGTGTTGAGCGAGGAGCAGATCAATGAGTGCCAAGAGCTGGGTGTTCTTGTGGATAGGGATGACCAGGGCGTTCTGCTTCAAATTGCCACTAAGCCAGTGGGCGACCGCCCTACATTCTGGCTTGAGATGATTCAAAGAATCGGCTGCATGGAGAAGGATGAGGTTGGACAGGAGTACCAAAAGGGCGGATGCGGTGGCTTCGGAAAGGGTAACTTCAGCGAGTTGTTCAAGTCAATCGAGGACTACGAGAAGAGCCTCGAGGTGAAGCAGTCAGTGGTTGCCCAAAAGTCCTGA
modifications: HPPDm-5-02 Nucleotide Sequence
notes: vector DBN11786
B1 was tested, and the Resistance evaluation ([1]; mesotrione 210 g ai/ha (2×)) was “Highly resistant”, the “Classification and statistics of the grade of pesticide damage Grade 0” value ([1]; mesotrione 210 g ai/ha (2×)) was 16 and the “Classification and statistics of the grade of pesticide damage Grade 1” value ([1]; mesotrione 210 g ai/ha (2×)) was 0. For the same molecule, the “Classification and statistics of the grade of pesticide damage Grade 2” value ([1]; mesotrione 210 g ai/ha (2×)) was 0, the “Classification and statistics of the grade of pesticide damage Grade 3” value ([1]; mesotrione 210 g ai/ha (2×)) was 0 and the Scores ([1]; mesotrione 210 g ai/ha (2×)) was 0. For the same molecule, the Resistance evaluation ([1]; mesotrione 420 g ai/ha (4×)) was “Highly resistant”, the “Classification and statistics of the grade of pesticide damage Grade 0” value ([1]; mesotrione 420 g ai/ha (4×)) was 16 and the “Classification and statistics of the grade of pesticide damage Grade 1” value ([1]; mesotrione 420 g ai/ha (4×)) was 0. For the same molecule, the “Classification and statistics of the grade of pesticide damage Grade 2” value ([1]; mesotrione 420 g ai/ha (4×)) was 0, the “Classification and statistics of the grade of pesticide damage Grade 3” value ([1]; mesotrione 420 g ai/ha (4×)) was 0 and the Scores ([1]; mesotrione 420 g ai/ha (4×)) was 0. For the same molecule, the Resistance evaluation ([2]; isoxaflutole 140 g ai/ha (2×)) was “Highly resistant”, the “Classification and statistics of the grade of pesticide damage Grade 0” value ([2]; isoxaflutole 140 g ai/ha (2×)) was 16 and the “Classification and statistics of the grade of pesticide damage Grade 1” value ([2]; isoxaflutole 140 g ai/ha (2×)) was 0. For the same molecule, the “Classification and statistics of the grade of pesticide damage Grade 2” value ([2]; isoxaflutole 140 g ai/ha (2×)) was 0, the “Classification and statistics of the grade of pesticide damage Grade 3” value ([2]; isoxaflutole 140 g ai/ha (2×)) was 0 and the Scores ([2]; isoxaflutole 140 g ai/ha (2×)) was 0. For the same molecule, the Resistance evaluation ([2]; isoxaflutole 280 g ai/ha (4×)) was “Highly resistant”, the “Classification and statistics of the grade of pesticide damage Grade 0” value ([2]; isoxaflutole 280 g ai/ha (4×)) was 14 and the “Classification and statistics of the grade of pesticide damage Grade 1” value ([2]; isoxaflutole 280 g ai/ha (4×)) was 1. For the same molecule, the “Classification and statistics of the grade of pesticide damage Grade 2” value ([2]; isoxaflutole 280 g ai/ha (4×)) was 1, the “Classification and statistics of the grade of pesticide damage Grade 3” value ([2]; isoxaflutole 280 g ai/ha (4×)) was 0 and the Scores ([2]; isoxaflutole 280 g ai/ha (4×)) was 6. The Resistance evaluation ([3]; topramezone 100 g ai/ha (4×)) was “Highly resistant”, the “Classification and statistics of the grade of pesticide damage Grade 0” value ([3]; topramezone 100 g ai/ha (4×)) was 16 and the “Classification and statistics of the grade of pesticide damage Grade 1” value ([3]; topramezone 100 g ai/ha (4×)) was 0. The “Classification and statistics of the grade of pesticide damage Grade 2” value ([3]; topramezone 100 g ai/ha (4×)) was 0, the “Classification and statistics of the grade of pesticide damage Grade 3” value ([3]; topramezone 100 g ai/ha (4×)) was 0 and the Scores ([3]; topramezone 100 g ai/ha (4×)) was 0. The Resistance evaluation ([3]; topramezone 200 g ai/ha (8×)) was “Highly resistant”, the “Classification and statistics of the grade of pesticide damage Grade 0” value ([3]; topramezone 200 g ai/ha (8×)) was 16 and the “Classification and statistics of the grade of pesticide damage Grade 1” value ([3]; topramezone 200 g ai/ha (8×)) was 0. For the same molecule, the “Classification and statistics of the grade of pesticide damage Grade 2” value ([3]; topramezone 200 g ai/ha (8×)) was 0, the “Classification and statistics of the grade of pesticide damage Grade 3” value ([3]; topramezone 200 g ai/ha (8×)) was 0 and the Scores ([3]; topramezone 200 g ai/ha (8×)) was 0.

B2: HPPDm-6-02: nucleotide sequence encoding Avena sativa HPPD with A106G+K351N+F372A+F383W; vector DBN11787 (nucleic acid)
DNA: B1 DNA with C317G, A331G
modifications: HPPDm-6-02 Nucleotide Sequence
notes: vector DBN11787
In the case of B2, the Resistance evaluation ([1]; mesotrione 210 g ai/ha (2×)) is reported as “Highly resistant”, the “Classification and statistics of the grade of pesticide damage Grade 0” value ([1]; mesotrione 210 g ai/ha (2×)) is reported as 16 and the “Classification and statistics of the grade of pesticide damage Grade 1” value ([1]; mesotrione 210 g ai/ha (2×)) is reported as 0. For the same molecule, the “Classification and statistics of the grade of pesticide damage Grade 2” value ([1]; mesotrione 210 g ai/ha (2×)) was 0, the “Classification and statistics of the grade of pesticide damage Grade 3” value ([1]; mesotrione 210 g ai/ha (2×)) was 0 and the Scores ([1]; mesotrione 210 g ai/ha (2×)) was 0. The Resistance evaluation ([1]; mesotrione 420 g ai/ha (4×)) was “Highly resistant”, the “Classification and statistics of the grade of pesticide damage Grade 0” value ([1]; mesotrione 420 g ai/ha (4×)) was 16 and the “Classification and statistics of the grade of pesticide damage Grade 1” value ([1]; mesotrione 420 g ai/ha (4×)) was 0. The “Classification and statistics of the grade of pesticide damage Grade 2” value ([1]; mesotrione 420 g ai/ha (4×)) was 0, the “Classification and statistics of the grade of pesticide damage Grade 3” value ([1]; mesotrione 420 g ai/ha (4×)) was 0 and the Scores ([1]; mesotrione 420 g ai/ha (4×)) was 0. The Resistance evaluation ([2]; isoxaflutole 140 g ai/ha (2×)) was “Highly resistant”, the “Classification and statistics of the grade of pesticide damage Grade 0” value ([2]; isoxaflutole 140 g ai/ha (2×)) was 16 and the “Classification and statistics of the grade of pesticide damage Grade 1” value ([2]; isoxaflutole 140 g ai/ha (2×)) was 0. For the same molecule, the “Classification and statistics of the grade of pesticide damage Grade 2” value ([2]; isoxaflutole 140 g ai/ha (2×)) was 0, the “Classification and statistics of the grade of pesticide damage Grade 3” value ([2]; isoxaflutole 140 g ai/ha (2×)) was 0 and the Scores ([2]; isoxaflutole 140 g ai/ha (2×)) was 0. The Resistance evaluation ([2]; isoxaflutole 280 g ai/ha (4×)) was “Highly resistant”, the “Classification and statistics of the grade of pesticide damage Grade 0” value ([2]; isoxaflutole 280 g ai/ha (4×)) was 13 and the “Classification and statistics of the grade of pesticide damage Grade 1” value ([2]; isoxaflutole 280 g ai/ha (4×)) was 3. For the same molecule, the “Classification and statistics of the grade of pesticide damage Grade 2” value ([2]; isoxaflutole 280 g ai/ha (4×)) was 0, the “Classification and statistics of the grade of pesticide damage Grade 3” value ([2]; isoxaflutole 280 g ai/ha (4×)) was 0 and the Scores ([2]; isoxaflutole 280 g ai/ha (4×)) was 6. The Resistance evaluation ([3]; topramezone 100 g ai/ha (4×)) was “Highly resistant”, the “Classification and statistics of the grade of pesticide damage Grade 0” value ([3]; topramezone 100 g ai/ha (4×)) was 16 and the “Classification and statistics of the grade of pesticide damage Grade 1” value ([3]; topramezone 100 g ai/ha (4×)) was 0. The “Classification and statistics of the grade of pesticide damage Grade 2” value ([3]; topramezone 100 g ai/ha (4×)) was 0, the “Classification and statistics of the grade of pesticide damage Grade 3” value ([3]; topramezone 100 g ai/ha (4×)) was 0 and the Scores ([3]; topramezone 100 g ai/ha (4×)) was 0. The Resistance evaluation ([3]; topramezone 200 g ai/ha (8×)) was “Highly resistant”, the “Classification and statistics of the grade of pesticide damage Grade 0” value ([3]; topramezone 200 g ai/ha (8×)) was 16 and the “Classification and statistics of the grade of pesticide damage Grade 1” value ([3]; topramezone 200 g ai/ha (8×)) was 0. The “Classification and statistics of the grade of pesticide damage Grade 2” value ([3]; topramezone 200 g ai/ha (8×)) was 0, the “Classification and statistics of the grade of pesticide damage Grade 3” value ([3]; topramezone 200 g ai/ha (8×)) was 0 and the Scores ([3]; topramezone 200 g ai/ha (8×)) was 0.
